The nature of the data set: circular dichroism. To be noted: 10 mM PBS; pH 7.4; 25 °C; 50-800 uM.

Here are results for seven compounds from paper PMC5146914.

`CC(=O)N[C@H]1CCCCC[S@@](=O)C[C@@H](C(N)=O)NC(=O)[C@H](C)NC(=O)CNC(=O)[C@H](C)NC1=O` registered a helicity of 54 rel %.

With `CC[C@H](C)[C@@H]1NC(=O)[C@H](C)NC(=O)[C@@H](NC(C)=O)CCCCC[S@@](=O)C[C@@H](C(N)=O)NC(=O)[C@H](C)NC1=O`, the helicity was found to be 86 rel %.

With `CC(=O)N[C@H]1CCCCC[S@@](=O)C[C@@H](C(N)=O)NC(=O)[C@H](C)NC(=O)[C@H](C)NC(=O)[C@H](C)NC1=O`, the helicity was found to be 100 rel %. Turning to `CC(=O)N[C@H]1CCCCC[S@@](=O)C[C@@H](C(N)=O)NC(=O)[C@H](C)NC(=O)[C@H](CO)NC(=O)[C@H](C)NC1=O`, the helicity is 65 rel %. The value for `CC(=O)N[C@H]1CCCCC[S@@](=O)C[C@@H](C(N)=O)NC(=O)[C@H](C)NC(=O)[C@H](CCC(N)=O)NC(=O)[C@H](C)NC1=O` was 93 rel %; that for `CC(=O)N[C@H]1CCCCC[S@@](=O)C[C@@H](C(N)=O)NC(=O)[C@H](C)NC(=O)[C@H](Cc2ccccc2)NC(=O)[C@H](C)NC1=O` was 92 rel %. Then `CC(=O)N[C@H]1CCCCC[S@@](=O)C[C@@H](C(N)=O)NC(=O)[C@H](CCC(=O)O)NC(=O)[C@H](C)NC(=O)[C@H](CCCCN)NC1=O`, with 31 rel %.
